Results reported in paper doi:10.1101/2020.04.05.026310 (bioRxiv, 2020).

B1: mouse pyridoxal kinase (mPDXK), wild type (enzyme, UniProt Q8K183 1-312, looked up)
chain: MEGECRVLSIQSHVVRGYVGNRAAMFPLQVLGFEVDAVNSVQFSNHTGYAHWKGQVLKSQELHELYEGLKVNDVNKYDYVLTGYTRDKSFLAMVVDIVRELKQQNSRLVYVCDPVMGDKWNGEGSMYVPQDLLPVYRDKVVPVADIITPNQFEAELLSGRKIHSQEEAFEVMDMLHCMGPDTVVITSSDLPSSQGSDYLIALGSQRMRKPDGSTVTQRIRMEMRKVEAVFVGTGDLFAAMLLAWTHKHPDNLKVACEKTVSAMQHVLQRTIRCAKAEAGEGQKPSPAQLELRMVQSKRDIEDPEIVVQATVL
B2: mouse pyridoxal kinase (mPDXK) R86W (enzyme, UniProt Q8K183 1-312, looked up)
chain: MEGECRVLSIQSHVVRGYVGNRAAMFPLQVLGFEVDAVNSVQFSNHTGYAHWKGQVLKSQELHELYEGLKVNDVNKYDYVLTGYTWDKSFLAMVVDIVRELKQQNSRLVYVCDPVMGDKWNGEGSMYVPQDLLPVYRDKVVPVADIITPNQFEAELLSGRKIHSQEEAFEVMDMLHCMGPDTVVITSSDLPSSQGSDYLIALGSQRMRKPDGSTVTQRIRMEMRKVEAVFVGTGDLFAAMLLAWTHKHPDNLKVACEKTVSAMQHVLQRTIRCAKAEAGEGQKPSPAQLELRMVQSKRDIEDPEIVVQATVL
B3: mouse pyridoxal kinase (mPDXK) F43R (enzyme, UniProt Q8K183 1-312, looked up)
chain: MEGECRVLSIQSHVVRGYVGNRAAMFPLQVLGFEVDAVNSVQRSNHTGYAHWKGQVLKSQELHELYEGLKVNDVNKYDYVLTGYTRDKSFLAMVVDIVRELKQQNSRLVYVCDPVMGDKWNGEGSMYVPQDLLPVYRDKVVPVADIITPNQFEAELLSGRKIHSQEEAFEVMDMLHCMGPDTVVITSSDLPSSQGSDYLIALGSQRMRKPDGSTVTQRIRMEMRKVEAVFVGTGDLFAAMLLAWTHKHPDNLKVACEKTVSAMQHVLQRTIRCAKAEAGEGQKPSPAQLELRMVQSKRDIEDPEIVVQATVL
B4: mouse pyridoxal kinase (mPDXK) V41W (enzyme, UniProt Q8K183 1-312, looked up)
chain: MEGECRVLSIQSHVVRGYVGNRAAMFPLQVLGFEVDAVNSWQFSNHTGYAHWKGQVLKSQELHELYEGLKVNDVNKYDYVLTGYTRDKSFLAMVVDIVRELKQQNSRLVYVCDPVMGDKWNGEGSMYVPQDLLPVYRDKVVPVADIITPNQFEAELLSGRKIHSQEEAFEVMDMLHCMGPDTVVITSSDLPSSQGSDYLIALGSQRMRKPDGSTVTQRIRMEMRKVEAVFVGTGDLFAAMLLAWTHKHPDNLKVACEKTVSAMQHVLQRTIRCAKAEAGEGQKPSPAQLELRMVQSKRDIEDPEIVVQATVL
B5: mouse pyridoxal kinase (mPDXK) V41W/F43R double mutant (enzyme, UniProt Q8K183 1-312, looked up)
chain: MEGECRVLSIQSHVVRGYVGNRAAMFPLQVLGFEVDAVNSWQRSNHTGYAHWKGQVLKSQELHELYEGLKVNDVNKYDYVLTGYTRDKSFLAMVVDIVRELKQQNSRLVYVCDPVMGDKWNGEGSMYVPQDLLPVYRDKVVPVADIITPNQFEAELLSGRKIHSQEEAFEVMDMLHCMGPDTVVITSSDLPSSQGSDYLIALGSQRMRKPDGSTVTQRIRMEMRKVEAVFVGTGDLFAAMLLAWTHKHPDNLKVACEKTVSAMQHVLQRTIRCAKAEAGEGQKPSPAQLELRMVQSKRDIEDPEIVVQATVL

Target: the molecule itself
Assay: SEC-MALS

Stoichiometry N, 2:
B1
B2
B3
B4
B5
